Results on 4 molecules are retold here after patent US20030009023A1 (US Dept. of Health and Human Services, published 2003).

T1: HA-tagged mouse Wnt-6 (mouse, UniProt P22727 24-364, limits assumed)
T1 construct: also called pLNCW6-HA; not shown: HA tag
T1 sequence (looked up): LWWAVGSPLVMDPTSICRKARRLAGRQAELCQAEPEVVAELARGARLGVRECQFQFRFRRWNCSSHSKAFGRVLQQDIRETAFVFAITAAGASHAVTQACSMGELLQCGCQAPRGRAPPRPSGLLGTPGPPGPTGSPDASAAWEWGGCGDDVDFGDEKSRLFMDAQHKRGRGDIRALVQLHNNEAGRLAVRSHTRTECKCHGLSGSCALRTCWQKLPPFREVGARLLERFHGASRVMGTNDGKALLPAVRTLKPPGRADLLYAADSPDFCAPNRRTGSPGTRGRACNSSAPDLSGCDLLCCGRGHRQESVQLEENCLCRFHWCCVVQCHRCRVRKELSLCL

T2: HA-tagged murine Wnt-1 (mouse, UniProt P04426 28-370)
T2 construct: also called pLNCWnt1HA; pLNCW1-HA; not shown: hemagglutinin (HA) tag near the C-terminus
T2 sequence (looked up): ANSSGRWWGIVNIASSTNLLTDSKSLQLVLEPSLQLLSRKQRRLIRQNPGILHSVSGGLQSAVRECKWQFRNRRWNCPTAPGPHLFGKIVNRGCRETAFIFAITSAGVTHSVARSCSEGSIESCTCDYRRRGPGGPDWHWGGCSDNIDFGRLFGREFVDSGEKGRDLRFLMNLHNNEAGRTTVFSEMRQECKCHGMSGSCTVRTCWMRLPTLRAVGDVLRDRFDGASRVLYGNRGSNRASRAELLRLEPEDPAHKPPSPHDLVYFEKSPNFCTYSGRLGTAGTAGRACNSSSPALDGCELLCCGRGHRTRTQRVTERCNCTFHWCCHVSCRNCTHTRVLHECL

T3: HA-tagged mouse Wnt-7A (mouse, UniProt P24383 32-349, limits assumed)
T3 construct: also called pLNCW7A-HA; not shown: HA tag
T3 sequence (looked up): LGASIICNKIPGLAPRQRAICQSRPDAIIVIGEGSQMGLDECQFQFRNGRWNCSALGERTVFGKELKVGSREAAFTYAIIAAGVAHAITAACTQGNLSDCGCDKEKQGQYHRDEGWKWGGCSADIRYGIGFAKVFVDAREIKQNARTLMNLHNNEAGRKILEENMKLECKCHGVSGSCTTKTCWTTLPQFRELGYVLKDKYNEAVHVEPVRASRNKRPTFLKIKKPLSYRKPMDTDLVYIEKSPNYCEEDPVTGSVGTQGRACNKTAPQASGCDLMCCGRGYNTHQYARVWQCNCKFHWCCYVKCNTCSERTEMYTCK

T4: HA-tagged mouse Wnt-5B (mouse, UniProt P22726 18-359, limits assumed)
T4 construct: also called pLNCW5B-HA; not shown: HA tag
T4 sequence (looked up): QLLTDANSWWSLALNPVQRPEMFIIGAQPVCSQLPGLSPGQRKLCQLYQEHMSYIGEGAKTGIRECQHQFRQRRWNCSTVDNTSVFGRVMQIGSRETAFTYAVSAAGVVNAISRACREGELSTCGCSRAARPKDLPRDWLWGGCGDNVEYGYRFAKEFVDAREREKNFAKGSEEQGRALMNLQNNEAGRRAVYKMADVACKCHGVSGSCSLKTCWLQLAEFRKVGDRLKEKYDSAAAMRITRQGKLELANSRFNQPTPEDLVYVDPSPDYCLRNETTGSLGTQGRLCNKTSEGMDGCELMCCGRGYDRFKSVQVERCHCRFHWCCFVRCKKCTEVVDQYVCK

T5: HA-tagged mouse Wnt-7B (mouse, UniProt P28047 25-349, limits assumed)
T5 construct: also called pLNCW7B-HA; not shown: HA tag
T5 sequence (looked up): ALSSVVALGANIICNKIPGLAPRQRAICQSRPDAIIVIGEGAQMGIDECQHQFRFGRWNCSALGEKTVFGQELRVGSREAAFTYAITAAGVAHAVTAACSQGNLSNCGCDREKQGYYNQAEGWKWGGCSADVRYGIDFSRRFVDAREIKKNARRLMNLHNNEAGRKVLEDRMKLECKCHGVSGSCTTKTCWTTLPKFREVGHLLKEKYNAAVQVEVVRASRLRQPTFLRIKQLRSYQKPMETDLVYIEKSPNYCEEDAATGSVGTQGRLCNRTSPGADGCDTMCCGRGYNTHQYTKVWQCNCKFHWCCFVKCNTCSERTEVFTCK

T6: HA-tagged mouse Wnt-2 (mouse, UniProt P21552 26-360, limits assumed)
T6 construct: also called pLNCW2-HA; not shown: HA tag
T6 sequence (looked up): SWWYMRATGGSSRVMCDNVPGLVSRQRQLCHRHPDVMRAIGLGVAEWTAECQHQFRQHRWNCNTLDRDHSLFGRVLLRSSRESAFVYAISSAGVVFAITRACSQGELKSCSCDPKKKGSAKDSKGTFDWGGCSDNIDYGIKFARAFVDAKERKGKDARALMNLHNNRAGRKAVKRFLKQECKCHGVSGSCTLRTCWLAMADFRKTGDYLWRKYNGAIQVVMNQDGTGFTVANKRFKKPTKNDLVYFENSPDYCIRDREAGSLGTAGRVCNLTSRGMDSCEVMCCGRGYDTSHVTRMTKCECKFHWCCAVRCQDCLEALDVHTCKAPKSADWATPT

T7: HA-tagged mouse Wnt-4 (mouse, UniProt P22724 23-351, limits assumed)
T7 construct: also called pLNCW4-HA; not shown: HA tag
T7 sequence (looked up): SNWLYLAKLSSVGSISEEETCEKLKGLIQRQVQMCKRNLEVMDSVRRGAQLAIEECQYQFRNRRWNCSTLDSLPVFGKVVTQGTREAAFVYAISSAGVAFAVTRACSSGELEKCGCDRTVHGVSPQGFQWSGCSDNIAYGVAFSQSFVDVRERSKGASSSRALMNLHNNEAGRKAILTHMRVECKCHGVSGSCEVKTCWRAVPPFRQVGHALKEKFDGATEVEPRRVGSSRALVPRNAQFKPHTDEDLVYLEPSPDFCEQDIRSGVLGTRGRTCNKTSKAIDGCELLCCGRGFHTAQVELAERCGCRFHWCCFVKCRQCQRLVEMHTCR

T8: Xwnt-8^myc (Xenopus, UniProt P28026 23-358, limits assumed)
T8 construct: also called myc-tagged XWnt-8
T8 sequence (looked up): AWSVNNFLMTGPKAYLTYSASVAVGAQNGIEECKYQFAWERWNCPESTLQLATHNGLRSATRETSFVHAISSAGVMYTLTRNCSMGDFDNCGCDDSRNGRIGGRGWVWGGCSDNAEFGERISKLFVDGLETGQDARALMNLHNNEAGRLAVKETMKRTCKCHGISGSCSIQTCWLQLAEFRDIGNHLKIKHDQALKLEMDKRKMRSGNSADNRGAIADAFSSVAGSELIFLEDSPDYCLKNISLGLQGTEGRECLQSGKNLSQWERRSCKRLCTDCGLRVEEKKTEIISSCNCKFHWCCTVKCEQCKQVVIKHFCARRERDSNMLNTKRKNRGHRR

B1: bovine Frzb (other)
chain: AACEPVRIPLCKSLPWNMTKMPNHLHHSTQANAILAIEQFEGLLGTHCSPDLLFFLCAMYAPICTIDFQHEPIKPCKSVCERARQGCEPILIKYRHSWPESLACEELPVYDRGVCISPEAIVTADGADFPMDSSNGNCRGASSERCKCKPVRATQKTYFRNNYNYVIRAKVKEIKTKCHDVTAVVEVKEILKASLVNIPRETVNLYTSSGCLCPPLNVNEEYLIMGYEDEERSRLLLVEGSIAEKWKDRLGKKVKRWDMKLRHLGLNTSDSSHSDSTQSQKPGRNSNSRQARN
notes: Full-length bovine Frzb expressed from pcDNA3 (pFrzb) in COS7 cells, or translated in vitro with microsomal membranes, or from injected mRNA; also called Bfrzb; BFrzb
B2: β-lactamase (enzyme)
chain: HPETLVKVKDAEDQLGARVGYIELDLNSGKILESFRPEERFPMMSTFKVLLCGAVLSRVDAGQEQLGRRIHYSQNDLVEYSPVTEKHLTDGMTVRELCSAAITMSDNTAANLLLTTIGGPKELTAFLHNMGDHVTRLDRWEPELNEAIPNDERDTTMPAAMATTLRKLLTGELLTLASRQQLIDWMEADKVAGPLLRSALPAGWFIADKSGAGERGSRGIIAALGPDGKPSRIVVIYTTGSQATMDERNRQIAEIGASLIKHW
notes: also called β-lactamase control
B3: Frzb deletion construct delta CRD (other)
chain: AACEPVVCISPEAIVTADGADFPMDSSNGNCRGASSERCKCKPVRATQKTYFRNNYNYVIRAKVKEIKTKCHDVTAVVEVKEILKASLVNIPRETVNLYTSSGCLCPPLNVNEEYLIMGYEDEERSRLLLVEGSIAEKWKDRLGKKVKRWDMKLRHLGLNTSDSSHSDSTQSQKPGRNSNSRQARN
notes: Made by deleting amino acids 39 to 145 of Frzb; also called CRD deletion; removal of the entire frizzled domain

The target of one test is Xwnt-8 (Xenopus) (UniProt P28026). The test is described as follows: cell-based or functional assay.
In the next test the target is T1, HA-tagged mouse Wnt-6. The test is described as follows: anti-HA immunoprecipitation of co-transfected COS7 lysates, immunoblot with N374-PEP.
Test [1] concerns the target T2, HA-tagged murine Wnt-1. Described as above.
Method: (§1) Transfections were performed for 6 hours in serum-free Opti-MEM I® (Life Technologies). Thereafter, cells were incubated for 18 hours in media containing 10% fetal bovine serum. Subsequently, cells were cultured at 37° C. for 24 hours in serum-free Opti-MEM I®. Cells were extracted for 30 minutes on ice with 50 mM Tris-HCl, 150 mM NaCl, 1.0% NP-40, 0.5% Deoxycholic acid and 0.1% SDS and centrifuged at 12,000× g for 5 minutes. Supernatants were saved for immunoprecipitation.
For another test, the target named is T3, HA-tagged mouse Wnt-7A. The description is as above.
Another test addresses T4, HA-tagged mouse Wnt-5B. The description is as above.
The target of a further test is T5, HA-tagged mouse Wnt-7B. The test is described as above.
Another test addresses T6, HA-tagged mouse Wnt-2. The test is described as above.
The next test addresses T9, HA-tagged mouse Wnt-3A (mouse, UniProt P27467 19-352, limits assumed).
T9 construct: also called pLNCW3A-HA; not shown: HA tag
Described as above.

The next test deals with T7, HA-tagged mouse Wnt-4. The description is as above.
The target in the test “bovine Frzb” is B1. Briefly: co-immunoprecipitation after in vitro cotranslation.
The next test has as its target T8, Xwnt-8^myc. The description is as above.
For test [2], the target named is T2, HA-tagged murine Wnt-1. Briefly: co-immunoprecipitation from lysates of co-transfected COS7 cells.

T9 sequence (P27467 19-352 limits assumed): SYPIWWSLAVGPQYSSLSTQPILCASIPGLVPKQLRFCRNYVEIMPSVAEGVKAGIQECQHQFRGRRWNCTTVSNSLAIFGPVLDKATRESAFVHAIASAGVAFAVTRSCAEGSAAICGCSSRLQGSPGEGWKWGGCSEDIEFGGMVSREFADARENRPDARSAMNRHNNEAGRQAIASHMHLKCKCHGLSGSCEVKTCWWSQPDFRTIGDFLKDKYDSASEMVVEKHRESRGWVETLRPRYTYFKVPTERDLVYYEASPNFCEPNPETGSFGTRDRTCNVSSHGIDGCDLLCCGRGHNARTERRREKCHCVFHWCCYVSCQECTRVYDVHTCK
Method for HA-tagged mouse Wnt-2: as §1
Method for HA-tagged mouse Wnt-3A: as §1
Method for HA-tagged mouse Wnt-4: as §1
Method for HA-tagged mouse Wnt-5B: as §1
Method for HA-tagged mouse Wnt-6: as §1
Method for HA-tagged mouse Wnt-7A: as §1
Method for HA-tagged mouse Wnt-7B: as §1

In the case of Xenopus Frzb, the head defects produced by CSKA-Xwnt-8 plasmid in dorsal blastomeres (64/80 embryos without Xfrzb) (embryos with head defects out of 81) with Xwnt-8 (Xenopus) came out at 0.
Consider B1, for which the binding result with HA-tagged mouse Wnt-6, with HA-tagged murine Wnt-1 [1], in the test with HA-tagged mouse Wnt-7A, with HA-tagged mouse Wnt-5B, with HA-tagged mouse Wnt-7B and in the test with HA-tagged mouse Wnt-2 was “binds” each time. The binding result with HA-tagged mouse Wnt-3A and in the test with HA-tagged mouse Wnt-4 was “binds” in each case.
As for B2, the binding result in the test with bovine Frzb and in the test with Xwnt-8^myc was “no binding” each time.
With B3, the binding result in the test with HA-tagged murine Wnt-1 [2] is reported as “no binding”.
